Laboratory results published in patent US20250339569A1 (3B PHARMACEUTICALS, published 2025).
Starred links: 1 amine or outer side, 2 acyl side, 3 side chain; linkers in the order of their positions; H or OH if unused. Positions of bridges follow the written chain, without caps; N, C: chain ends. Non-standard residues stand in square brackets, D forms with d. Primed or numbered codes have the meaning given here. *: point of attachment. Af3(DImAc) = 3-aminophenylalanine acylated on the ring amine with 2-{2,5-dioxo-octahydroimidazo[4,5-d]imidazolidin-1-yl}acetic acid, O=C(CN1C(=O)NC2NC(=O)NC21)Nc1cccc(C[C@H](N[*:1])C(=O)[*:2])c1; Af3(HySuc) = 3-amino-L-phenylalanine acylated on the ring amine with 2-(3,6-dioxo-1,2,3,6-tetrahydropyridazin-4-yl)acetic acid, O=C(Cc1cc(=O)[nH][nH]c1=O)Nc1cccc(C[C@H](N[*:1])C(=O)[*:2])c1; Af3(CMPy) = 3-amino-L-phenylalanine acylated on the ring amine with 5-cyano-1-methyl-1H-pyrazole-4-carboxylic acid, Cn1ncc(C(=O)Nc2cccc(C[C@H](N[*:1])C(=O)[*:2])c2)c1C#N; Aph(5SaPyr2) = 4-amino-L-phenylalanine, ring amine acylated by 5-sulfamoylpyridine-2-carboxylic acid, NS(=O)(=O)c1ccc(C(=O)Nc2ccc(C[C@H](N[*:1])C(=O)[*:2])cc2)nc1; Af3(TzPr) = 3-amino-L-phenylalanine acylated on the ring amine with 3-(1H-1,2,4-triazol-3-yl)propanoic acid, O=C(CCc1nc[nH]n1)Nc1cccc(C[C@H](N[*:1])C(=O)[*:2])c1; Af3(Ac-Glu) = 3-aminophenylalanine acylated on the ring amine with N-acetyl-glutamic acid, CC(=O)N[C@@H](CCC(=O)[*:3])C(=O)Nc1cccc(C[C@H](N[*:1])C(=O)[*:2])c1; Aph(3MSaBz) = 4-aminophenylalanine, ring amine acylated with 3-(sulfamoylmethyl)benzoic acid, NS(=O)(=O)Cc1cccc(C(=O)Nc2ccc(C[C@H](N[*:1])C(=O)[*:2])cc2)c1; Aph(HO-Succinyl) = 4-aminophenylalanine acylated on the ring amine with succinic acid (free carboxyl), O=C(CCC(=O)[*:3])Nc1ccc(C[C@H](N[*:1])C(=O)[*:2])cc1; Aph(4SaBz) = 4-aminophenylalanine, ring amine acylated with 4-sulfamoylbenzoic acid, NS(=O)(=O)c1ccc(C(=O)Nc2ccc(C[C@H](N[*:1])C(=O)[*:2])cc2)cc1; Af3(HO-Dga) = 3-aminophenylalanine, ring amine acylated with carboxymethoxy-acetic acid, O=C(COCC(=O)[*:3])Nc1cccc(C[C@H](N[*:1])C(=O)[*:2])c1; Af3(HYDAc) = 3-aminophenylalanine, ring amine acylated with hydantoin-5-acetic acid, O=C(CC1NC(=O)NC1=O)Nc1cccc(C[C@H](N[*:1])C(=O)[*:2])c1; Aph(SaPr) = 4-amino-L-phenylalanine, ring amine acylated by 3-sulfamoylpropanoic acid, NS(=O)(=O)CCC(=O)Nc1ccc(C[C@H](N[*:1])C(=O)[*:2])cc1; 3MeBn″ = 3-methylbenzylidene, m-xylene unit (from alpha,alpha'-dibromo-m-xylene) joined to both Cys S by thioether linkages; Aph(HYDAc) = 4-amino-L-phenylalanine, ring amine acylated by hydantoin-5-acetic acid; Phe(3-NHCO(CH2)3SO2NH2) = N[C@@H](Cc1cccc(NC(=O)CCCS(N)(=O)=O)c1)C(=O)O; APAc″ = 2-(4-(amino)piperidin-1-yl)acetic acid, NC1CCN(CC(=O)*)CC1; DOTA = O=C(O)CN1CCN(CC(=O)O)CCN(CC(=O)*)CCN(CC(=O)O)CC1; PPAc = 4-carboxymethyl piperazine linker; mXylylene = c1cc(C[*:1])cc(C[*:2])c1; N4BzlCONH2 = not defined here; N4DazPhCN = not defined here; N6MeQuion = not defined here; N4BzlCN = not defined here; N4BzlCl = not defined here; NH3PhSa = not defined here; NH4PhSa = not defined here; NOAzOMe = not defined here; N4Inda = not defined here; Pip = O=C(O)[C@@H]1CCCCN1; PPAc″ = not defined here; APAc = not defined here; Dap = NC[C@H](N)C(=O)O; AEEA = NCCOCCOCC(=O)O

B1: 3BP-4456 (peptide)
peptide: {DOTA}-[Pip]YCE[dP]D[Phe(3-NHCO(CH2)3SO2NH2)]LTWSC-NH2
modifications: linker 3-12 via mXylylene
SMILES: CC(C)C[C@@H]1NC(=O)[C@H](Cc2cccc(NC(=O)CCCS(N)(=O)=O)c2)NC(=O)[C@H](CC(=O)O)NC(=O)[C@H]2CCCN2C(=O)[C@H](CCC(=O)O)NC(=O)[C@@H](NC(=O)[C@H](Cc2ccc(O)cc2)NC(=O)[C@@H]2CCCCN2C(=O)CN2CCN(CC(=O)O)CCN(CC(=O)O)CCN(CC(=O)O)CC2)CSCc2cccc(c2)CSC[C@@H](C(N)=O)NC(=O)[C@H](CO)NC(=O)[C@H](Cc2c[nH]c3ccccc23)NC(=O)[C@H]([C@@H](C)O)NC1=O
B2: 3BP-4262 (peptide)
peptide: {DOTA-AEEA}-DCE[dP]DWLTW[Dap]C-NH2
modifications: lactam 10-1; linker 2-11 via mXylylene
SMILES: CC(C)C[C@@H]1NC(=O)[C@H](Cc2c[nH]c3ccccc23)NC(=O)[C@H](CC(=O)O)NC(=O)[C@H]2CCCN2C(=O)[C@H](CCC(=O)O)NC(=O)[C@@H]2CSCc3cccc(c3)CSC[C@@H](C(N)=O)NC(=O)[C@H](CNC(=O)C[C@H](NC(=O)COCCOCCNC(=O)CN3CCN(CC(=O)O)CCN(CC(=O)O)CCN(CC(=O)O)CC3)C(=O)N2)NC(=O)[C@H](Cc2c[nH]c3ccccc23)NC(=O)[C@H]([C@@H](C)O)NC1=O

target: T1, Fc-fusion protein of human carbonic anhydrase IX (human, UniProt Q16790 38-414); assay: SPR, captured hCAIX-Fc; pKD category A: >8.0

Binder	pKD [pkd]
B1	> 8
{DOTA-APAc}-VYCE[dP]E(N4Inda)WLTWSC-NH2 (linker 3-12 via mXylylene; reading uncertain) [3BP-4387]	> 8
{DOTA-PPAc}-DCE[dP]D[Aph(SaPr)]LTW[Dap]C-NH2 (lactam 1-10; linker 2-11 via mXylylene) [3BP-4498]	> 8
{DOTA-APAc}-VYCE[dP]D[Af3(HO-Dga)]LTWSC-NH2 (linker 3-12 via 3MeBn″; reading uncertain) [3BP-4368]	> 8
{DOTA-PPAc″}-YCE[dP]DWLTWSC-NH2 (linker 2-11 via mXylylene; reading uncertain) [3BP-4446]	> 8
{DOTA-APAc}-VYCE[dP]D[Aph(4SaBz)]LTWSC-NH2 (linker 3-12 via mXylylene; reading uncertain) [3BP-4398]	> 8
{DOTA-APAc}-VYCE[dP]E(NH3PhSa)WLTWSC-NH2 (linker 3-12 via mXylylene; reading uncertain) [3BP-4441]	> 8
{DOTA-APAc}-VYCE[dP]E(NH4PhSa)WLTWSC-NH2 (linker 3-12 via mXylylene; reading uncertain) [3BP-4442]	> 8
{DOTA-APAc}-VYCE[dP]D[Af3(HYDAc)]LTWSC-NH2 (linker 3-12 via mXylylene; reading uncertain) [3BP-4371]	> 8

target: human carbonic anhydrase IX (CAIX) (human, UniProt Q16790 38-459); assay: FACS competition, HT-29 cells, tracer 3BP-4149; pIC50 category B: 7.1-8.0
Method: (§1) CAIX-expressing human HT-29 colorectal cancer cells (DSMZ, RRID: CVCL_0320) were cultured in McCoys's 5A modified medium (Biochrom, #F1015) including 10% fetal calf serum (FCS), 2 mM L-glutamine, 100 U/ml penicillin and 100 μg/mL streptomycin. Cells were detached with Accutase (Biolegend, #423201) and washed in FACS buffer (PBS including 1% FCS). Cells were diluted in FACS buffer to a final concentration of 500.000 cells per ml. 200 μL of the cell suspension were transferred to a u-shaped non-binding 96-well plate (Greiner) and cells were washed in ice-cold FACS buffer.
(§2) When biotinylated compounds were used an additional incubation step with 1 μg/mL APC-Streptavidin (Miltenyi; #130-106-791) in 50 μL FACS buffer for 30 minutes on ice was performed.
(§3) Cells were washed twice with ice-cold FACS buffer and analyzed in an Attune NxT flow cytometer (Thermo Fisher). Median fluorescence intensities (MFI) of the APC/Cy5-channel were calculated by Attune NxT software.

Binder	pIC50 [pic50]
B1	7.1 to 8
{DOTA-APAc}-VYCE[dP]E(N4Inda)WLTWSC-NH2 (linker 3-12 via mXylylene; reading uncertain) [3BP-4387]	7.1 to 8
{DOTA-PPAc}-DCE[dP]D[Aph(SaPr)]LTW[Dap]C-NH2 (lactam 1-10; linker 2-11 via mXylylene) [3BP-4498]	7.1 to 8
{DOTA-APAc}-VYCE[dP]D[Aph(HYDAc)]LTWSC-NH2 (linker 3-12 via mXylylene; reading uncertain) [3BP-4458]	7.1 to 8
{DOTA-APAc}-VYCE[dP]D[Af3(HO-Dga)]LTWSC-NH2 (linker 3-12 via 3MeBn″; reading uncertain) [3BP-4368]	7.1 to 8
{DOTA-PPAc″}-YCE[dP]DWLTWSC-NH2 (linker 2-11 via mXylylene; reading uncertain) [3BP-4446]	7.1 to 8
{DOTA-APAc}-VYCE[dP]D[Aph(3MSaBz)]LTWSC-NH2 (linker 3-12 via mXylylene; reading uncertain) [3BP-4399]	7.1 to 8
{DOTA-APAc}-VYCE[dP]D[Aph(4SaBz)]LTWSC-NH2 (linker 3-12 via mXylylene; reading uncertain) [3BP-4398]	7.1 to 8
{DOTA-PPAc″}-QCE[dP]D[Aph(5SaPyr2)]LTWSC-NH2 (linker 2-11 via mXylylene; reading uncertain) [3BP-4480]	7.1 to 8
{DOTA-APAc}-VYCE[dP]E(NH3PhSa)WLTWSC-NH2 (linker 3-12 via mXylylene; reading uncertain) [3BP-4441]	7.1 to 8
{DOTA-APAc}-VYCE[dP]E(NH4PhSa)WLTWSC-NH2 (linker 3-12 via mXylylene; reading uncertain) [3BP-4442]	7.1 to 8
{DOTA-APAc}-VYCE[dP]E(N4DazPhCN)WLTWSC-NH2 (linker 3-12 via mXylylene; reading uncertain) [3BP-4389]	7.1 to 8
{DOTA-APAc}-VYCE[dP]D[Af3(HYDAc)]LTWSC-NH2 (linker 3-12 via mXylylene; reading uncertain) [3BP-4371]	7.1 to 8
{DOTA-APAc}-VYCE[dP]E(N6MeQuion)WLTWSC-NH2 (linker 3-12 via mXylylene; reading uncertain) [3BP-4390]	7.1 to 8

target: T1, Fc-fusion protein of human carbonic …; assay: SPR, captured hCAIX-Fc; t1/2 category A: >15.0 min

Binder	t1/2 (half-life of the complex, SPR) [min]
B1	> 15
{DOTA-APAc}-VYCE[dP]E(N4Inda)WLTWSC-NH2 (linker 3-12 via mXylylene; reading uncertain) [3BP-4387]	> 15
{DOTA-PPAc}-DCE[dP]D[Aph(SaPr)]LTW[Dap]C-NH2 (lactam 1-10; linker 2-11 via mXylylene) [3BP-4498]	> 15
{DOTA-APAc}-VYCE[dP]E(NH3PhSa)WLTWSC-NH2 (linker 3-12 via mXylylene; reading uncertain) [3BP-4441]	> 15
{DOTA-APAc}-VYCE[dP]E(NH4PhSa)WLTWSC-NH2 (linker 3-12 via mXylylene; reading uncertain) [3BP-4442]	> 15

target: T1, Fc-fusion protein of human carbonic …; assay: SPR, captured hCAIX-Fc; t1/2 category C: 2.1-5.0 min
Method: Stock solutions of test compounds were prepared by dissolving each compound in DMSO. DMSO stock solution were diluted 1:1000 in Running Buffer without DMSO. […] SPR binding analyses were performed in Single Cycle Kinetic (SCK) mode at 25° C.
For each test compound, SPR raw data in the form of resonance units (RU) were plotted as sensorgrams using the Biacore™ T200 control software. The signal from the blank sensorgram was subtracted from that of the test compound sensorgram (blank corrected). The blank corrected sensorgram was corrected for baseline drift by subtracting the sensorgram of a SCK run without the test compound (running buffer only). […] Raw data and fit results were imported as text files in IDBS. The pKD value (negative decadic logarithm of dissociation constant) was calculated in the IDBS excel template.

Binder	t1/2 (half-life of the complex, SPR) [min]
{DOTA-APAc}-VYCE[dP]D[Af3(HO-Dga)]LTWSC-NH2 (linker 3-12 via 3MeBn″; reading uncertain) [3BP-4368]	2.1 to 5
{DOTA-PPAc″}-YCE[dP]DWLTWSC-NH2 (linker 2-11 via mXylylene; reading uncertain) [3BP-4446]	2.1 to 5
{DOTA-APAc}-VYCE[dP]D[Aph(4SaBz)]LTWSC-NH2 (linker 3-12 via mXylylene; reading uncertain) [3BP-4398]	2.1 to 5
{DOTA-PPAc″}-QCE[dP]D[Aph(5SaPyr2)]LTWSC-NH2 (linker 2-11 via mXylylene; reading uncertain) [3BP-4480]	2.1 to 5
{DOTA-APAc}-VYCE[dP]D[Af3(HYDAc)]LTWSC-NH2 (linker 3-12 via mXylylene; reading uncertain) [3BP-4371]	2.1 to 5

target: human carbonic anhydrase 9 (CAIX) (human, UniProt Q16790 38-459); assay: FACS competition on HT-29 cells, competitor tracer 3BP-4149; category B = pIC50 7.1-8.0
Method: as §1, §2, §3

Binder	pIC50 [pic50]
{DOTA-APAc″}-VYCE[dP]D[Aph(HO-Succinyl)]LTWSC-NH2 (linker 3-12 via mXylylene) [3BP-4356]	7.1 to 8
{DOTA-APAc″}-VYCE[dP]D[Af3(Ac-Glu)]LTWSC-NH2 (linker 3-12 via mXylylene) [3BP-4361]	7.1 to 8
B2	7.1 to 8
{DOTA-APAc″}-VYCE[dP]D[Af3(CMPy)]LTWSC-NH2 (linker 3-12 via mXylylene) [3BP-4305]	7.1 to 8
{DOTA-APAc″}-VYCE[dP]D[Af3(DImAc)]LTWSC-NH2 (linker 3-12 via mXylylene) [3BP-4341]	7.1 to 8
{DOTA-APAc″}-VYCE[dP]D[Af3(TzPr)]LTWSC-NH2 (linker 3-12 via mXylylene) [3BP-4324]	7.1 to 8
{DOTA-APAc″}-VYCE[dP]E(N4BzlSO2Me)WLTWSC-NH2 (linker 3-12 via mXylylene) [3BP-4333]	7.1 to 8
{DOTA-APAc″}-VYCE[dP]E(NOAzOMe)WLTWSC-NH2 (linker 3-12 via mXylylene; reading uncertain) [3BP-4339]	7.1 to 8
{DOTA-APAc″}-VYCE[dP]E(N4BzlCN)WLTWSC-NH2 (linker 3-12 via mXylylene; not fully specified; reading uncertain) [3BP-4340]	7.1 to 8
{DOTA-APAc″}-VYCE[dP]E(N4BzlCl)WLTWSC-NH2 (linker 3-12 via mXylylene; reading uncertain) [3BP-4334]	7.1 to 8
{DOTA-APAc″}-VYCE[dP]E(N4BzlCONH2)WLTWSC-NH2 (linker 3-12 via mXylylene; not fully specified; reading uncertain) [3BP-4345]	7.1 to 8
{DOTA-APAc″}-VYCE[dP]D[Af3(HySuc)]LTWSC-NH2 (linker 3-12 via mXylylene) [3BP-4322]	7.1 to 8
